Data as given in paper PMC2225407.

These sequences were tested against MBP::FAX-1 (Caenorhabditis elegans) (UniProt G5EDJ0) (assay: EMSA). Settings: EMSA: 1.5 ug MBP::FAX-1, 4 ng 32P ds oligo, BSA, 30 min pre-incubation + 30 min on ice, 8% native PAGE; binding buffer salt and pH not given.
UniProt G5EDJ0, sequence (G5EDJ0 whole entry): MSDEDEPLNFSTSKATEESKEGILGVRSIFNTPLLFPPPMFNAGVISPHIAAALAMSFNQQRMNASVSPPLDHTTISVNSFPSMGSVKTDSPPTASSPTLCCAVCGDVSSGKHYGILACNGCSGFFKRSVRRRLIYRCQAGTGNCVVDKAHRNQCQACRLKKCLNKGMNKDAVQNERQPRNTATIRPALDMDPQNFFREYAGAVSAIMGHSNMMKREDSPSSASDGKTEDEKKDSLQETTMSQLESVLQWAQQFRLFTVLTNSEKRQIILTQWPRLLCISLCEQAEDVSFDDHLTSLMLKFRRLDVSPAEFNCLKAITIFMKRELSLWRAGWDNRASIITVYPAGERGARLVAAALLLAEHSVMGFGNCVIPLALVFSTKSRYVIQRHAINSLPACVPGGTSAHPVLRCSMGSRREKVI

Compared with “AATTACCCTTTTAAAAGTCAAAAGTCAACTTCCAA / TCGATTGGAAGTTGACTTTTGACTTTTAAAAGGGT [DR1A]”, “AATTACCCTTTTAAAAGTCAAAATTCAACTTCCAA / TCGATTGGAAGTTGAATTTTGACTTTTAAAAGGGT [HRSW]” is lower in binding signal (% probe bound): 53.3 for the first, 11.7 for the second.

First: AATTACCCTTTTAAAAGTCAAAATTTAACTTCCAA / TCGATTGGAAGTTAAATTTTGACTTTTAAAAGGGT [MON1]
Second: AATTACCCTTTTAAAATTCAAAAGTCAACTTCCAA / TCGATTGGAAGTTGACTTTTGAATTTTAAAAGGGT [HRWS]
The binding signal (% probe bound) of the first is lower: 2.8 for the first, 10.5 for the second.

Compared with “AATTACCCTTTTAAAATTCAAAATTCAACTTCCAA / TCGATTGGAAGTTGAATTTTGAATTTTAAAAGGGT [DRNC]”, “AATTACCCTTTTAAAATTTAAAAGTCAACTTCCAA / TCGATTGGAAGTTGACTTTTAAATTTTAAAAGGGT [MON2]” is higher in binding signal (% probe bound): 0.4 for the first, 4.5 for the second.

Compared with “AATTACCCTTTTAAACGTCAAACGTCAACTTCCAA / TCGATTGGAAGTTGACGTTTGACGTTTAAAAGGGT [DR1C]”, “AATTACCCTTTTAAATGTCAAATGTCAACTTCCAA / TCGATTGGAAGTTGACATTTGACATTTAAAAGGGT [DR1T]” is higher in binding signal (% probe bound): 26.1 for the first, 29.8 for the second.

Same assay, conditions: supershift with anti-FAX-1 shown; EMSA: 1.5 ug MBP::FAX-1, 4 ng 32P ds oligo, BSA, 30 min pre-incubation + 30 min on ice, 8% native PAGE; binding buffer salt and pH not given

Work on “AATTACCCTTTTAAAGGTCAAAGGTCAACTTCCAA / TCGATTGGAAGTTGACCTTTGACCTTTAAAAGGGT [DR1G]” yielded a binding signal (% probe bound) of 42.1.
